From patent US20150266963A1 (ARGEN X B V, published 2015)
Numbering of substitutions follows the chain as printed.

Experiments:
[1] = molecular target: T1, recombinant human CD27 Fc chimera (CD27-Fc) (human, UniProt P26842 21-192); assay: ELISA; captured Flag-TNC-CD70
T1 construct: Bought reagent; also called recombinant CD27-Fc; Fc part of the bought chimera not given
T1 sequence (looked up): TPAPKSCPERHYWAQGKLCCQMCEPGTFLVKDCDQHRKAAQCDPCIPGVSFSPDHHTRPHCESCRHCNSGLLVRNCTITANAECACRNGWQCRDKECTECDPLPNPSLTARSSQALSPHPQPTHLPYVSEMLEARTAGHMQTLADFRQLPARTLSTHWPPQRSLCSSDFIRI

[2] = molecular target: T2, human CD70 expressed on the surface of cells (human, UniProt P32970 1-193); assay: cell-based or functional assay
T2 sequence (looked up): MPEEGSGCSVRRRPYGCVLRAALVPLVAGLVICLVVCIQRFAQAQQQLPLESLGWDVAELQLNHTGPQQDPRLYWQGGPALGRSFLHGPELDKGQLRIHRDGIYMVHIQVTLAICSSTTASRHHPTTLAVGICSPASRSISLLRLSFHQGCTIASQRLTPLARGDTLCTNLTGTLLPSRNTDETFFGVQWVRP

[3] = molecular target: T3, recombinant human CD70 (Flag-TNC-CD70) (human, UniProt P32970 39-193); assay: inhibition ELISA; Flag-TNC-CD70 captured by anti-Flag mAb; competitor CD27-Fc
T3 construct: extracellular domain; Captured by anti-Flag mAb in ELISA; as 'recombinant human CD70' immobilised on Biacore CM5 chips; TNC is for trimerisation; also called recombinant CD70; human recombinant CD70; not shown: Flag tag and TNC trimerisation domain
T3 sequence (looked up): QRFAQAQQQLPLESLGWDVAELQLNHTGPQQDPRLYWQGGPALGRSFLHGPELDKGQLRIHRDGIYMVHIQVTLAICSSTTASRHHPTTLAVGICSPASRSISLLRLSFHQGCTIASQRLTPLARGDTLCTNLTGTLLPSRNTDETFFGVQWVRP
Experimental: From selected phage transfected into TG1, individual colonies were picked randomly for growth in 96 well plates. After IPTG induction according to standard protocols periplasmic fractions (penis) containing Fabs were prepared. […] In this assay, Flag-TNC-CD70 is captured by an anti-Flag mAb and binding of CD27-Fc is detected via a biotinylated anti-CD27 mAb and strep-HRP in the absence or presence of CD70 Fabs (FIGS. 2 and 3) or CD70 mAbs (FIG. 4). In FIG. 2B it can be seen that 27B3, which has an identical VH as 9D1, but contains a somewhat different light chain, seems to block binding of CD27 to CD70 more efficiently, which was in line with the better off rate of this Fab as measured on Biacore (data not shown). Table 3 indicates the blocking potency (expressed as IC50) for the various llama-human chimeric mAbs tested in the CD70 inhibition ELISA. […] FIG. 3 is a composite of an experiment testing llama CD70 Fabs for blocking activity (in the inhibition ELISA, see white bars) and for CD70 binding (binding ELISA, black bars). For the binding ELISA, Flag-TNC-CD70 is captured by an anti-Flag mAb and binding of the Fabs is detected using an anti-myc-HRP mAb, which recognizes the MYC tag fused to the C-terminus of the Fd fragment. For comparison purposes, known monoclonal antibodies to CD70 (SGN70 described in US 2010/0129362 A1, clone 1F6; and MDX69A7 described in WO2008/074004 FIGS. 5A and 5B) were tested in parallel. […] Of interest is clone 59D10, which as Fab has no blocking activity, but when converted into a chimeric IgG was antagonistic (see Table 3). Amino acid sequences of the VH and VL domains of binding and blocking llama-derived Fab clones are shown elsewhere herein (Tables 6-9).

[4] = molecular target: T4, heat denatured recombinant CD70 (human, UniProt P32970 52-193, limits assumed); assay: ELISA on coated heat denatured recombinant CD70, anti-human IgG-HRP
T4 construct: Same recombinant CD70 as m1, denatured by heating for 5 minutes at 95 C and cooling on ice, coated directly on the plate; also called denatured CD70; not shown: Flag tag (anti-Flag mAb was the coating control) and further fusion parts
T4 sequence (looked up): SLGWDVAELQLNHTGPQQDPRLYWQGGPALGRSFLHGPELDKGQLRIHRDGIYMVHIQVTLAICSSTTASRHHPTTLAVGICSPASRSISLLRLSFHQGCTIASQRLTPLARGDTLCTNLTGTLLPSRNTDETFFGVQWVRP
Experimental: The binding of CD70 mAbs to denatured recombinant CD70 was assessed by ELISA. Recombinant CD70 was denatured by heating for 5 minutes at 95° C., followed by immediate cooling on ice for 5 minutes. A microtiter plate was coated with 5 μg/ml CD70 with or without denaturation. The plate was blocked and the CD70 mAbs for testing were applied at 10 μg/ml. After washing, binding of the mAbs was detected using anti-human IgG-HRP. As a positive control for the coating, instead of using the CD70 mAbs, an anti-Flag mouse-derived mAb was applied and detection was with anti-mouse-HRP. TMB was used as a substrate and OD at 620 nm was measured. […] Amongst the other mAbs, some are also binding to denatured CD70 (fe 5F4, 9G2, 57B6).

[5] = molecular target: T2, human CD70 expressed on the surface of …; assay: flow cytometry on 786-O cells, anti-human Fc-FITC
Experimental: Fluorescence of 10,000 cells/condition was measured using a flow cytometer and the median fluorescence was plotted.

[6] = molecular target: T2, human CD70 expressed on the surface of …; assay: cell-based or functional assay; remark: listed apart in the source

B1: human-mouse CD70 chimera chim-3 (Flag-TNC-CD70) (ligand, not shown: small tags and cut ends)
chain: HPEPHTAELQLNLTVPRKDPTLRWGAGPALGRSFTHGPELEEGHLRIHQDGLYRLHIQVTLANCSSPGSTLQHRATLAVGICSPASRSISLLRLSFHQGCTIASQRLTPLARGDTLCTNLTGTLLPSRNTDETFFGVQWVRP
notes: also called chimera 3
B1: binds [1].

B2: 19G10 chimeric llama-human mAb (antibody, human IgG1, V domains shown)
VH: EVQLQESGGGVVQPGGSLRLSCAASGFTFDDYAMSWVRQAPGKGLEWVSSIYMYDSSTYYADSVKGRFTISTDNAKNTVYLQMNSLKSEDTAVYYCAKDINRSYGSSWSHFGPIFSSWGQGTQVTVSS
VL: NFMLTQPSAVSVSLGQTARITCQGGYYTHWYQQKPGQAPVLVIYVNNNRPSGIPERFSGSSSGNTATLTISGAQAEDEAAYYCQSGSSSTIPVFGGGTKLTVLG
With B2 the “IC50 (ng/ml), IL-8 secretion in Raji / HT1080-CD27 co-culture assay” value (shortened to “IC50 … in Raji / HT1080-CD27 co-culture assay”) [2] was 16 ng/mL, the IC50 [3] was 0.075 µg/mL and the binding result [4] was “no binding (tested: 10 µg/ml (text))”.

B3: 9E1 chimeric llama-human mAb (antibody, human IgG1, V domains shown)
VH: B2 VH
VL: QAVVTQEPSLSVSPGGTVTLTCGLTSGSVTSSNYPDWYQQTPGQAPRLLIYNTNSRHSGVPSRFSGSISGNKAALTITGAQPEDEADYYCNLYMGSGGSKVFGGGTKLTVLG
In the case of B3, the “IC50 … in Raji / HT1080-CD27 co-culture assay” value [2] is reported as 517 ng/mL, the IC50 [3] is reported as 1.4 µg/mL and the binding result [4] is reported as “no binding (tested: 10 µg/ml (text))”.

B4: 6D5 (antibody, V domains shown)
VH: EVQLVQPGAELRKPGASVKVSCKASGYTFTSYYIDWVRQAPGQGLEWMGRIDPEDGGTKYAQKFQGRVTFTADASTSTAYVELSSLRSEDTAVYYCASRRRDFDYWGQGTQVTVSS
VL: QSALTQPSAVSVSLGQTARITCQGGNARFSSFAWYQQKPGQAPVQVIYYNTNRPSGIPARFSGSSSGGAATLTISGAQAEDEADYYCQSYESGNYVFGGGTTLTVLG
notes: the mAb format of 6D5 is not described in the text; also called 6D5 mAb
B4: no binding (tested: 10 µg/ml (text)) [4].

B5: 4D2 chimeric llama-human mAb (antibody, human IgG1, V domains shown)
VH: QVQLQESGPGLVKPSQTLSLACTVSGGSITTSYYYWSWIRQPPGKGLEWMGAIGSRGSTYYSPSLKTRTSISRDTSKNQFTLQLSSVTPEDTAVYYCARVTGEITYNSGSYYYTLNLFDYWGQGTQVTVSS
VL: QSVLTQPPSLSASPGSSVRLTCTLSSGNSVGNYDISWYQQKAGSPPRYLLYYYSDSYKNQGSGVPSRFSGSKDPSANAGLLLISGLQAEDEADYYCSVSNSGTYKPVFGGGSKLTVLG
B5 was tested, and the “EC50 (read off the curve)” value [5] was about 0.06 µg/mL, the “IC50 … in Raji / HT1080-CD27 co-culture assay” value [2] was 54 ng/mL and the IC50 [3] was 0.254 µg/mL.

B6: 5F4 chimeric llama-human mAb (antibody, human IgG1, V domains shown)
VH: EVQVQESGGGLVHPGGSLKLSCAASGFTFDTYAMSWVRQAPGKGLEWVSAISWSGGETFYAESMKGRFTISRNNAKNTLYLQMNSLKSEDTAVYYCARGMGLAEGLTDWGQGTQVTVSS
VL: QAVVTHPPSLSASPGSSVRLTCTLISGDNIGGYDISWYQQKTGSPPRYLLYYYSDSYKHQSSGVPSRFSGSKDASANAGLLLISGLQSEDEADYYCSAYKSGSYKAPVFGGGTHLTVLG
In the case of B6, the “EC50 (read off the curve)” value [5] is reported as about 0.2 µg/mL, the “IC50 … in Raji / HT1080-CD27 co-culture assay” value [2] is reported as 32 ng/mL and the IC50 [3] is reported as 0.296 µg/mL.

B7: human-mouse CD70 chimera chim-1 (Flag-TNC-CD70) (ligand)
chain: HPEPHTAELQLNLTVPRKDPTLRWGAGPALGRSFLHGPELDKGQLRIHRDGIYMVHIQVTLAICSSTTASRHHPTTLAVGICSPASRSISLLRLSFHQGCTIASQRLTPLARGDTLCTNLTGTLLPSRNTDETFFGVQWVRP
modifications: Soluble homotrimer held by the TNC domain; one CD70 ECD chain is given.
notes: also called chimera 1; not shown: N-terminal Flag tag, TNC (tenascin-C) trimerisation domain and any linkers of the Flag-TNC-CD70 construct
B7: binds [1].

B8: human-mouse CD70 chimera chim-2 (Flag-TNC-CD70) (ligand, not shown: small tags and cut ends)
chain: B1 chain with P67T, G68T, S69A, T70S, L71R, Q72H, R74P, A75T
notes: also called chimera 2
B8: binds [1].

B9: human-mouse CD70 chimera chim-2.1 (Flag-TNC-CD70) (ligand)
chain: B7 chain with L35T
modifications: Soluble homotrimer held by the TNC domain; one CD70 ECD chain is given.
notes: also called chimera 2.1; not shown: N-terminal Flag tag, TNC (tenascin-C) trimerisation domain and any linkers of the Flag-TNC-CD70 construct
B9: binds [1].

B10: human-mouse CD70 chimera chim-2.2 (Flag-TNC-CD70) (ligand)
chain: B7 chain with L35T, D41E, K42E, Q44H
notes: also called chimera 2.2; not shown: N-terminal Flag tag, TNC trimerisation domain and any linkers of the Flag-TNC-CD70 construct
B10: binds [1].

B11: human-mouse CD70 chimera chim-2.4 (Flag-TNC-CD70) (ligand, not shown: small tags and cut ends)
chain: B7 chain with L35T, D41E, K42E, Q44H, R49Q, I52L, M54R, V55L
notes: also called chimera 2.4
B11: binds [1].

B12: 53A2 mAb (full-length human IgG1, HEK293) (antibody, V domains shown)
VH: EVQLVESGGGLVQPGGSLRLSCAASGFTFSVYYMNWVRQAPGKGLEWVSDINNEGGTTYYADSVKGRFTISRDNSKNSLYLQMNSLRAEDTAVYYCARDAGYSNHVPIFDSWGQGTLVTVSS
VL: QAVVTQEPSFSVSPGGTVTLTCGLKSGSVTSDNFPTWYQQTPGQAPRLLIYNTNTRHSGVPDRFSGSILGNKAALTITGAQADDEAEYFCALFISNPSVEFGGGTQLTVLG
B12 was tested, and the “Raji co-culture assay IC50 relative to 27B3” value [6] was 0.8 fold of 27B3.

B13: 41D12 mAb (full-length human IgG1, HEK293) (antibody, V domains shown)
VH: B12 VH
VL: B12 VL with F10L, S11T
B13 was tested, and the “Raji co-culture assay IC50 relative to 27B3” value [6] was 1.2 fold of 27B3.

B14: 53H1 mAb (full-length human IgG1, HEK293) (antibody, V domains shown)
VH: B12 VH
VL: B12 VL with A2T
In the case of B14, the “Raji co-culture assay IC50 relative to 27B3” value [6] is reported as 1.6 fold of 27B3.

B15: 35G2 mAb (full-length human IgG1, HEK293) (antibody, V domains shown)
VH: B12 VH with S75A, S78T, R87K, A88P
VL: B12 VL with A2T, D32T, T55S, E87D
In the case of B15, the “Raji co-culture assay IC50 relative to 27B3” value [6] is reported as 1.4 fold of 27B3.

B16: 40F1 mAb (full-length human IgG1, HEK293) (antibody, V domains shown)
VH: B12 VH with T57A, L117Q
VL: B12 VL
B16 was tested, and the “Raji co-culture assay IC50 relative to 27B3” value [6] was 1.8 fold of 27B3.

B17: human-mouse CD70 chimera chim-4 (Flag-TNC-CD70) (ligand, not shown: small tags and cut ends)
chain: HPEPHTAELQLNLTVPRKDPTLRWGAGPALGRSFTHGPELEEGHLRIHQDGLYRLHIQVTLANCSSPGSTLQHRATLAVGICSPAAHGISLLRGRFGQDCTVALQRLTYLVHGDVLCTNLTGTLLPSRNTDETFFGVQWVRP
notes: also called chimera 4
B17: binds [1].
